# Assay results taken from IntAct's records for PubMed 16799563.
# B1: Mediator of RNA polymerase II transcription subunit 15 (Homo sapiens), Q96RN5 (parent)
# chain: MDVSGQETDWRSTAFRQKLVSQIEDAMRKAGVAHSKSSKDMESHVFLKAKTRDEYLSLVARLIIHFRDIHNKKSQASVSDPMNALQSLTGGPAAGAAGIGMPPRGPGQSLGGMGSLGAMGQPMSLSGQPPPGTSGMAPHSMAVVSTATPQTQLQLQQVALQQQQQQQQFQQQQQAALQQQQQQQQQQQFQAQQSAMQQQFQAVVQQQQQLQQQQQQQQHLIKLHHQNQQQIQQQQQQLQRIAQLQLQQQQQQQQQQQQQQQQALQAQPPIQQPPMQQPQPPPSQALPQQLQQMHHTQHHQPPPQPQQPPVAQNQPSQLPPQSQTQPLVSQAQALPGQMLYTQPPLKFVRAPMVVQQPPVQPQVQQQQTAVQTAQAAQMVAPGVQMITEALAQGGMHIRARFPPTTAVSAIPSSSIPLGRQPMAQVSQSSLPMLSSPSPGQQVQTPQSMPPPPQPSPQPGQPSSQPNSNVSSGPAPSPSSFLPSPSPQPSQSPVTARTPQNFSVPSPGPLNTPVNPSSVMSPAGSSQAEEQQYLDKLKQLSKYIEPLRRMINKIDKNEDRKKDLSKMKSLLDILTDPSKRCPLKTLQKCEIALEKLKNDMAVPTPPPPPVPPTKQQYLCQPLLDAVLANIRSPVFNHSLYRTFVPAMTAIHGPPITAPVVCTRKRRLEDDERQSIPSVLQGEVARLDPKFLVNLDPSHCSNNGTVHLICKLDDKDLPSVPPLELSVPADYPAQSPLWIDRQWQYDANPFLQSVHRCMTSRLLQLPDKHSVTALLNTWAQSVHQACLSAA
# partner: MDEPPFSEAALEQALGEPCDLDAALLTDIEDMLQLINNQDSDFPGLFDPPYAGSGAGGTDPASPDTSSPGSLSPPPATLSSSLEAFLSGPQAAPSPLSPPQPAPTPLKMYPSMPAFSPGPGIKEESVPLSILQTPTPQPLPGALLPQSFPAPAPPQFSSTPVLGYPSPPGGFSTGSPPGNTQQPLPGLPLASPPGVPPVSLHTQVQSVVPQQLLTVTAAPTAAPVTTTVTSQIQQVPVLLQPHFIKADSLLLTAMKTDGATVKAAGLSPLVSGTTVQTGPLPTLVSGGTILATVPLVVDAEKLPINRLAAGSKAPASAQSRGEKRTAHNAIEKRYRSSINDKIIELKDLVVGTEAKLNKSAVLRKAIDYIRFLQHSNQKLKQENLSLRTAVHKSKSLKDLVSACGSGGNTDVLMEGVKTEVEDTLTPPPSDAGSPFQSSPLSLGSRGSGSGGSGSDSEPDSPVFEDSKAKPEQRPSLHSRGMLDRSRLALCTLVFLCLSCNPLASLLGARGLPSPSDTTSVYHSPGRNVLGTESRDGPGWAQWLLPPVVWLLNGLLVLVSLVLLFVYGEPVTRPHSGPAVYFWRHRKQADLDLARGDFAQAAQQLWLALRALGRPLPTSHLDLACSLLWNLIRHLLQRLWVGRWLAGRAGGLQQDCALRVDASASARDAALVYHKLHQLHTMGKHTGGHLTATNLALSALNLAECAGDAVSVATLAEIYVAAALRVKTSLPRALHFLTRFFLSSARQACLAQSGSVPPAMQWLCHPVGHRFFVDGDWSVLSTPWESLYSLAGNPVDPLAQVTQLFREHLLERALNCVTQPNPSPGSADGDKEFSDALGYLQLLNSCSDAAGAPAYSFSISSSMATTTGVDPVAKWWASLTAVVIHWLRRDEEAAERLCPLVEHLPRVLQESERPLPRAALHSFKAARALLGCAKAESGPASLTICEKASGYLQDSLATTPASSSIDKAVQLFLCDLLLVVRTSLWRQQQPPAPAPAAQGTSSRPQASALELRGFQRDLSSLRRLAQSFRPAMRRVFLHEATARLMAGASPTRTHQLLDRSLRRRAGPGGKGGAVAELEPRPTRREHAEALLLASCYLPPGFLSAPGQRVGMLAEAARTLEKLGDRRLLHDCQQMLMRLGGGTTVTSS
# Variants of: B1
# Settings: with SREBF1, P36956-1
row,Variant,effect of a mutation on the interaction
1,L58D,disrupting interaction strength
2,E42A,disrupting interaction strength
3,A60D,disrupting interaction strength
